Laboratory results as given in the supplement of paper PMC9170038.

Tested on: MS2 coat protein
Assay: apparent KD of MS2 coat protein; designed switch direction (-1 OFF switch, 1 ON switch): 1; higher = weaker reporter binding
Method in brief: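 SNAP-549-labelled MS2 coat protein was titrated, doubling from 0.7 or 1.5 nM to 3 µM, over designed RNA switches transcribed on Illumina chips by stalled E. coli RNA polymerase. Runs were done without input, with 200 uM small-molecule ligand, or with an oligonucleotide input. Apparent KD is the per-design median over clusters of curve-fitted normalised fluorescence.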

[1] = input ligand: microRNA oligo, concentration not stated
[2] = Eterna round: R95, input ligand: FMN 200 uM
[3] = Eterna round: R95, input ligand: microRNA oligo, concentration not stated
[4] = Eterna round: R95, input ligand: none

Sequence | apparent KD of MS2 coat protein (input ligand: FMN 200 uM) [nM] | apparent KD of MS2 coat protein [1] [nM] | apparent KD of MS2 coat protein (input ligand: none) [nM] | apparent KD of MS2 coat protein [2] [nM] | apparent KD of MS2 coat protein [3] [nM] | apparent KD of MS2 coat protein [4] [nM]
UGACACACGGCAGGAUAUCGAUUGCAAAGCAAUCGAGAAGGGCCUCAUGUCGUGGAAACGUGACAUGAGGAUCACCCAUGUCGC [Omei SS(NG)1 Cv13] (Eterna round: R96, puzzle: Same State NG 1) | 53.1 | 11.6 | 24 | – | – | –
UGACACACGGCAGGAUAUCGUUAGCAAAGCUAACGAGAAGGGCCUCAUGUCGUGGAAACGUGACAUGAGGAUCACCCAUGUCGC [Omei SS(NG)1 Cv9] (Eterna round: R96, puzzle: Same State NG 1) | 272 | 27.3 | 58.5 | – | – | –
UGACACACGGCAGGAUAUGCUUAGCAAAGCUAAGCAGAAGGGCCUCAUGUCGUGGAAACGUGACAUGAGGAUCACCCAUGUCGC [Omei SS(NG)1 Cv4] (Eterna round: R96, puzzle: Same State NG 1) | 122 | 6.01 | 17.7 | – | – | –
UGACACACGGCAGGAUAUGCUUAGCAAAGCUAAGCAGAAGGGCCUCAUGUCGUGGAAACGUGACAUGAGGAUCACCCAUGUUGC [Omei SS(NG)1 Cv2] (Eterna round: R96, puzzle: Same State NG 1) | 306 | 46.8 | 57.9 | – | – | –
UGACACACGGCAGGAUAUGCUUAGCAAAGCUAAGCAGAAGGGCCUCAUGUCGUGGAAAUGUGACAUGAGGAUCACCCAUGUUGC [Omei SS(NG)1 Cv6] (Eterna round: R96, puzzle: Same State NG 1) | 39.3 | 20.7 | 92.2 | – | – | –
UGAGCCGGCACUGAGGAUAUUCAUAUUAAAACAUGAGGAUCACCCAUGUAGGCCAGAAGGCCUUGGGAGAAGGCAGGUCGGCUCU [Mat - Same State 2 - Mod of UCT - D60] (puzzle: Same State 2) | – | – | – | 22.6 | 185 | 334
UGCAGCUACGUAGGAUAUCCGAAAGGAAGUGUAGGAGAAGGACGAGAGCCGCCUUACGUACAUGAGGAUCACCCAUGUAGUAGG [PowerStrip SSNG 1.22] (Eterna round: R96, puzzle: Same State NG 1) | 13.7 | 21.8 | 25.9 | – | – | –
UGCAUACAUGAGGAUCACCCAUGUCAACGUAGUCGAGGAUAUGGGCAGCCGUGAGGCGAACCAGAAGGCGAAUUGU [JL-ss1-3.03 ViennaUCT mod] (puzzle: Same State 1) | – | – | – | 23.1 | 52.7 | 115
UGCCUGAGUCGAGGAUAUUAUGGAUCCUUUAAUACAUGAGGAUCACCCAUGUAAUUAAUUAUACAUGAGAAGGCGACUCAGGCU [SSNG2/11-A3] (Eterna round: R96, puzzle: Same State NG 2) | – | 58.9 | – | – | – | –
UGCUAUCGAAAACGAUAGCUAAAGUUUGUACAUGAGGAUCACCCAUGUUGUACAAGCUUUUUGCUCGUCUUAAAUAA [JL SD Zipper 16] (Eterna round: R96, puzzle: Sensor for hsa-mir-208a) | 67.1 | 15.2 | 62.4 | – | – | –
UGCUAUUGUAUAUUGGUGCAAGCUUUUUGACAUGAGGAUCACCCAUGUACUCGUCUUAUGUGCAGUCCGUAGACUGC [JL-shm-2.24 Brourd mod] (puzzle: Sensor for hsa-mir-208a) | – | – | – | 47.8 | 13.4 | 45.6
UGCUUCAUGUAAGGAUAUGCAGCCGUUUCGGCUGCAGAAGGUACUAUAAUACAUGAGGAUCACCCAUGUCUCUCGCAUUGCGGG [salish99_SSng1_r04_302] (Eterna round: R96, puzzle: Same State NG 1) | 91 | 118 | 184 | – | – | –
UGGAUCUAGGCUUGCCUGGGUCCAUGUUGACAUGAGGAUCACCCAUGUGUAUUUUUUUAGCUUUUUGUUUGUCAACU [JL A Humble Attempt mod 10] (puzzle: Sensor for hsa-mir-208a) | – | – | – | 26.2 | 13 | 25.5
UGGCAACAUGAGGAUCACCCAUGUCAAACUAAUCGAGGAUAUGGGAACUAACAACACAAACUAGAAGGCGAACUUG [Altered State 1-10 - Jieux - Same State 1] (puzzle: Same State 1) | – | – | – | 74.9 | 32 | 38.3
UGGCUCAGACGAGGAUAUACGUGGUCACAUGAGGAUCACCCAUGUCUCGAGCUUCGGCUCGAGGCGUAGAAGGCGUCUGAGCCU [SSNG2/6-A3] (Eterna round: R96, puzzle: Same State NG 2) | 112 | 133 | 151 | – | – | –
UGGCUCAGACGAGGAUAUAUGCGAUCACAUGAGGAUCACCCAUGUCUCGAGCUUCGGCUCGAGGCAUAGAAGGCGUCUGAGCCA [SSNG2/4-A2] (Eterna round: R96, puzzle: Same State NG 2) | 15.8 | 28 | 32.5 | – | – | –
UGGCUCAGACGAGGAUAUAUGCGAUCACAUGAGGAUCACCCAUGUCUCGAGCUUCGGCUCGAGGCAUAGAAGGUGUCUGAGCCU [SSNG2/4-C3] (Eterna round: R96, puzzle: Same State NG 2) | 23.9 | 70.3 | 94.7 | – | – | –
UGGCUCAGACGAGGAUAUAUGUCUCGAGCUUCGGCUCGAGACAUGAGGAUCACCCAUGUAAUAACAUAGAAGGCGUCUGAGCCU [SSNG2/1-A3] (Eterna round: R96, puzzle: Same State NG 2) | 12.6 | 29 | 34.3 | – | – | –
UGGCUCAGACUAGGAUAUACGUGGUCACAUGAGGAUCACCCAUGUCUCGAGCUUCGGCUCGAGGCGUAGAAGGAGUCUGAGCCU [SSNG2/6-D3] (Eterna round: R96, puzzle: Same State NG 2) | 126 | 245 | 334 | – | – | –
UGGCUCAGACUAGGAUAUAUGUGGUCACAUGAGGAUCACCCAUGUCUCGAGCUUCGGCUCGAGGCAUAGAAGGAGUCUGAGCCA [SSNG2/5-D2] (Eterna round: R96, puzzle: Same State NG 2) | 1540 | 329 | 26.5 | – | – | –
UGGCUGAGUCGAGGAUAUGAUCUUCAUAUAAUAACAUGAGGAUCACCCAUGUAUAAUUACAUGGAUCAGAAGGCGACUCAGCCA [SSNG2/13-B2] (Eterna round: R96, puzzle: Same State NG 2) | – | 362 | – | – | – | –
UGGUAACAUGAGGAUCACCCAUGUCAAAUGAAUCGAGGAUAUGGGAAAGGAGAAGAGAAACUAGAAGGCGAAGUUG [Altered State 1-12 - Jieux - Same State 1] (puzzle: Same State 1) | – | – | – | 202 | 191 | 148
UGGUACAUGGGAGGAUAUCAUGUAGAAACAUGAGGAUCACCCAUGUAGGUGGCACGAUUCGUGAAUGAGAAGGCCCAUGUACCU [JL SSNG1 3.61] (Eterna round: R96, puzzle: Same State NG 2) | 312 | 225 | 376 | – | – | –
UGGUACAUGGGAGGAUAUCCUCAGGAGACAUGAGGAUCACCCAUGUAUUAUAAGCCGAAAGGCAUGGAGAAGGCCCAUGUACCU [JL SSNG1 3.82] (Eterna round: R96, puzzle: Same State NG 2) | 14.1 | 112 | 123 | – | – | –
UGGUACAUGGGAGGAUAUCCUCAUGAGACAUGAGGAUCACCCAUGUAUUAUAAGCCGAAAGGCAUGGAGAAGGCCCAUGUACCU [JL SSNG1 3.83] (Eterna round: R96, puzzle: Same State NG 2) | 25 | 269 | 455 | – | – | –
UGGUACAUGGGAGGAUAUGGGCAUGAGACAUGAGGAUCACCCAUGUAUUAUAAGCCGAAAGGCAUCUAGAAGGCCCAUGUACCU [JL SSNG1 3.84] (Eterna round: R96, puzzle: Same State NG 2) | 14.2 | 68.3 | 92.4 | – | – | –
UGUACAUGAGGAUCACCCAUGUCUAGACAUGUUAAUAUAAUGUAGGAUAUAUAAAAUUUAAUUUAAUAGAAGGACAAUUUUUUU [JMF's solution 1] (Eterna round: R96, puzzle: Same State NG 3) | 278 | 218 | 297 | – | – | –
